Here are results for four molecules from patent publication US20200407722, “DNA APTAMER […] BINDING TO TB7.7, AND USE […]” (MD APTUS INC., published 2020).

For one data set, the target named is T1, TB7.7 (Mycobacterium tuberculosis H37Rv, UniProt P9WJ11 P9WJ11:1-81).
T1 sequence: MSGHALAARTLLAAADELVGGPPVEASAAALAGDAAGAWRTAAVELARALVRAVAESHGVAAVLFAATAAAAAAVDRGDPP
The data set can be described thus: fluorescence of Cy3-aptamer bound to TB7.7 magnetic beads; 20 mM Tris, 50 mM NaCl, 5 mM KCl, 5 mM MgCl2, pH 8.0. The note with it: tags: His6-tag, pET32a vector, expressed in E. coli BL21(DE3); label: Cy3. On the procedure: 16 μg of TB7.7 was mixed with 10 μL of magnetic beads, and then incubated in 100 μL of a binding buffer (20 mM Tris, 50 mM NaCl, 5 mM KCl, 5 mM MgCl₂, pH 8.0) for 1 hour. To separate unbound TB7.7, washing was performed twice with a binding buffer. Subsequently, the resulting mixture was incubated together with various concentrations of a Cy3-labeled aptamer for an hour, and an unbound aptamer was removed by washing. The amount of Cy3-labeled ssDNA aptamer bound to the magnetic beads with TB7.7 immobilized thereon was measured by fluorescence measurement (1420 Victor Multilabel counter, PerkinElmer, USA) by separating only Cy3-labeled ssDNA bound to TB7.7.

The target in the next data set is CFP10 (Mycobacterium tuberculosis, UniProt P9WNK5 P9WNK5:2-100). The data set can be described thus: impedance biosensor, 10 pM protein in PBS; aptamer taken as TG4. The text has this:
(§1) At this time, each protein was mixed at a concentration of 10 pM with PBS and used for detection.

Another data set deals with ESAT6 (Mycobacterium tuberculosis, UniProt P9WNK7 P9WNK7:2-95). The description is as above.
Source text: as §1

B1: TG6 (ssDNA)
DNA: CACCTAATACGACTCACTATAGCGGATCCGACACGAAGGATACTCAGTAGTACCCAGGTTGGTAGGGTAGCCTGGCTCGAACAAGCTTGC
Regarding B1, the equilibrium dissociation constant (Kd) with TB7.7 worked out at 34.3 nM.

B2: TG5 (ssDNA)
DNA: CACCTAATACGACTCACTATAGCGGATCAGAATTTCTGTAATTAAGCGATAAATTGCTTAATAGGCACTCTCTGGCTCGAACAAGCTTGC
Regarding B2, the affinity with TB7.7, expressed as Kd, was 106 nM.

B3: TG4 (ssDNA)
DNA: CACCTAATACGACTCACTATAGCGGATCCGAAAGTTGTTAGTAGACTTAGGGGAGGGTTAAAGTGGGGTGGCTGGCTCGAACAAGCTTGC
B3 returned a Kd in the data set with TB7.7 of 37.5 nM.

B4: TG4 immobilized on gold electrode (ssDNA)
DNA: B3 DNA
In the case of B4, the binding result in the data set with CFP10 and in the data set with ESAT6 was “no binding” in each case.

What is called Kd is the concentration at which binding is half-saturated. Low readings indicate a tighter complex, high ones a looser complex.
